We go through 11 molecules from US20160333065A1 (ACADEMISCH ZIEKENHUIS LEIDEN H O D N LUMC, published 2016).

What is called IC50 is the concentration that gives 50% inhibition. A high value points to weaker potency.

Test [1] deals with T1, HLA-B60 (B*4001) (human).
T1 construct: MHC class I molecule on mild-acid-stripped EBV-transformed B cells (DKB)
Description: cellular competition binding assay on acid-stripped B-LCL DKB, flow cytometry; competitor Fl-labeled reference peptide KESTC(Fl)HLVL. Background: In flow cytometry, cells or beads pass a laser one at a time.

For another test, the target named is T2, HLA-B35 (B*3501) (human).
T2 construct: MHC class I molecule on mild-acid-stripped EBV-transformed B cells (BVR)
Put plainly: cellular competition binding assay on acid-stripped B-LCL BVR, flow cytometry; competitor Fl-labeled reference peptide NPDIVC(Fl)YQY.

For the next test, the target named is T3, HLA-A3 (A*0301) (human).
T3 construct: MHC class I molecule on mild-acid-stripped EBV-transformed B cells (EKR)
Put plainly: cellular competition binding assay on acid-stripped B-LCL EKR, flow cytometry; competitor Fl-labeled reference peptide KVFPC(Fl)ALINK.

Test [2] concerns the target T4, HLA-B7 (B*0702) (human).
T4 construct: Acid-stripped B-LCL
Description: cell competition vs APAPAPC(FI)WPL, stripped JY B-LCL, FACS.

The target of test [3] is T5, HLA-B8 (B*0801) (human).
T5 construct: Acid-stripped B-LCL
Description: cell competition vs FLRGRAC(FI)GL, stripped Vavy B-LCL, FACS.

The target of a further test is T6, HLA-A1 (A*0101) (human).
T6 construct: MHC class I molecule on mild-acid-stripped EBV-transformed B cells (CAA)
Put plainly: cellular competition binding assay on acid-stripped B-LCL CAA, flow cytometry; competitor Fl-labeled reference peptide YLEPAC(Fl)AKY.

The target in test [4] is T7, HLA-B8 (B*0801) (human).
T7 construct: HLA class I on acid-stripped EBV-transformed B cells (B-LCL)
Description: competition vs FLRGRAC(FI)GL on stripped B-LCL, FACS.

In test [5] the target is T8, HLA-B7 (B*0702) (human).
T8 construct: HLA class I on acid-stripped EBV-transformed B cells (B-LCL)
Description: competition vs APAPAPC(FI)WPL on stripped B-LCL, FACS.

Test [6] addresses T9, HLA-B60 (B*4001) (human).
T9 construct: HLA class I on acid-stripped EBV-transformed B cells (B-LCL)
Description: competition vs KESTC(FI)HLVL on stripped B-LCL, FACS.

The next test deals with T10, HLA-B61 (B*4002) (human).
T10 construct: HLA class I on acid-stripped EBV-transformed B cells (B-LCL)
Description: competition vs GEFGGC(FI)GSV on stripped B-LCL, FACS.

A further test concerns the target T11, HLA-B62 (B*1501) (human).
T11 construct: MHC class I molecule on mild-acid-stripped EBV-transformed B cells (BSM)
Put plainly: cellular competition binding assay on acid-stripped B-LCL BSM, flow cytometry; competitor Fl-labeled reference peptide YLGEFSC(Fl)TY.

The target of test [7] is T12, HLA-B8 (B*0801) (human).
T12 construct: MHC class I molecule on mild-acid-stripped EBV-transformed B cells (Vavy)
Put plainly: cellular competition binding assay on acid-stripped B-LCL Vavy, flow cytometry; competitor Fl-labeled reference peptide FLRGRAC(Fl)GL.

Bounds are passed on as bounds.

Molecule YEDIHGTLHL [PRAME 448-457 YEDIHGTLHL] registered an IC50 in the test with HLA-B60 (B*4001) [1] below 1000 nM.
EPILCPCFM [PRAME 499-507 EPILCPCFM] gave an IC50 with HLA-B35 (B*3501) of 320 nM.
Consider RLAYLHARLR [PRAME 459-468 RLAYLHARLR], for which the IC50 with HLA-A3 (A*0301) amounted to 1000 nM.
For the molecule RPRRWKLQVL [PRAME peptide RPRRWKLQVL], the IC50 in the test with HLA-B7 (B*0702) [2] and with HLA-B8 (B*0801) [3] was below 1000 nM each time.
In the test with HLA-A1 (A*0101), GTLHLERLAY [PRAME 453-462 GTLHLERLAY] displayed an IC50 of 2000 nM.
Consider RPRRWKLQVL [PRAME 113-122 RPRRWKLQVL], for which the IC50 with HLA-B8 (B*0801) [4] and with HLA-B7 (B*0702) [5] was below 1000 nM each time.
For the molecule RELFPPLFM [PRAME 50-58 RELFPPLFM], the IC50 in the test with HLA-B60 (B*4001) [6] was 1480 nM; with HLA-B61 (B*4002) it was below 1000 nM.
For LSNLTHVLY [PRAME 433-441 …], the IC50 with HLA-A1 (A*0101) was below 1000 nM.
VLYPVPLESY [PRAME 439-448 VLYPVPLESY] gave an IC50 with HLA-B62 (B*1501) of 1660 nM.
In turn, YLHARLREL [PRAME 462-470 YLHARLREL] had an IC50 in the test with HLA-B8 (B*0801) [7] below 1000 nM.
As for DEALAIAAL [PRAME 37-45 DEALAIAAL], the IC50 with HLA-B60 (B*4001) [6] was 1550 nM; in the test with HLA-B61 (B*4002), below 1000 nM.
